The results in this text go back to paper PMC7842262.

The test system of this data set is HIV-1 Rev (HIV-1). Description: EMSA. Particulars: scale: fold more Rev than RRE for 50% unbound RNA. For orientation: A gel shift assay detects complexes by their altered migration in electrophoresis.

Substance 433-mer RcRE (K-RRE) gave a binding signal of 8.
